From paper PMC3715890 (2013)

Molecular target: HIF-1alpha PAS-B (235-350) (Homo sapiens, UniProt Q16665)
Assay: ITC

Sequence of HIF-1alpha PAS-B (235-350) (Q16665 235-350): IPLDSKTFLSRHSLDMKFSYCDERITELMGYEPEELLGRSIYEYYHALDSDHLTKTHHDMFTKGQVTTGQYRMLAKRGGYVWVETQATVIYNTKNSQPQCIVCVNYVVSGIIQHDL

B1: P1 (Tat-cyclo-CLLFVY) (peptide)
chain: cyclo(C(S‑S‑Tat)LLFVY)
Kd: 124 nM
